Measured values from patent US10358672B2, “7-β-hydroxysteroid dehydrogenase mutants and process for the preparation of ursodeoxycholic acid” (Pharmazell GmbH, priority 2014, dated 2019).
Where a chain is given by its changes, count along the chain named. Numbers in names are those of the source.

B1: 7β-HSDH [R64D]: 7β-HSDH mutant, arginine in position 64 exchanged for aspartic acid (D) (protein, UniProt A4ECA9 1-263, looked up, variant R64D)
7beta-hydroxysteroid …: MNLREKYGEWGLILGATEGVGKAFCEKIAAGGMNVVMVGRREEKLNVLAGEIRETYGVETKVVDADFSQPGAAETVFAATEGLDMGFMSYVACLHSFGKIQDTPWEKHEAMINVNVVTFLKCFHHYMRIFAAQDRGAVINVSSMTGISSSPWNGQYGAGKAFILKMTEAVACECEGTGVDVEVITLGTTLTPSLLSNLPGGPQGEAVMKIALTPEECVDEAFEKLGKELSVIAGQRNKDSVHDWKANHTEDEYIRYMGSFYRD
B2: 7β-HSDH [R64K]: 7β-HSDH mutant, R in position 64 replaced by K (protein, UniProt A4ECA9 1-263, looked up, variant R64K)
7beta-hydroxysteroid …: B1 7beta-hydroxysteroid … with D64K
B3: 7β-HSDH [R64L]: 7β-HSDH mutant, R in position 64 replaced by L (protein, UniProt A4ECA9 1-263, looked up, variant R64L)
7beta-hydroxysteroid …: B1 7beta-hydroxysteroid … with D64L
B4: 7β-HSDH [R64C]: 7β-HSDH mutant, R in position 64 replaced by C (protein, UniProt A4ECA9 1-263, looked up, variant R64C)
7beta-hydroxysteroid …: B1 7beta-hydroxysteroid … with D64C
B5: 7β-HSDH [R64A]: 7β-HSDH mutant, R in position 64 replaced by A (protein, UniProt A4ECA9 1-263, looked up, variant R64A)
7beta-hydroxysteroid …: B1 7beta-hydroxysteroid … with D64A
B6: 7β-HSDH [R64V]: 7β-HSDH mutant, R in position 64 replaced by V (protein, UniProt A4ECA9 1-263, looked up, variant R64V)
7beta-hydroxysteroid …: B1 7beta-hydroxysteroid … with D64V
B7: 7β-HSDH [R64S]: 7β-HSDH mutant, R in position 64 replaced by S (protein, UniProt A4ECA9 1-263, looked up, variant R64S)
7beta-hydroxysteroid …: B1 7beta-hydroxysteroid … with D64S
B8: 7β-HSDH [R64F]: 7β-HSDH mutant, R in position 64 replaced by F (protein, UniProt A4ECA9 1-263, looked up, variant R64F)
7beta-hydroxysteroid …: B1 7beta-hydroxysteroid … with D64F
B9: 7β-HSDH [R64T]: 7β-HSDH mutant, R in position 64 replaced by T (protein, UniProt A4ECA9 1-263, looked up, variant R64T)
7beta-hydroxysteroid …: B1 7beta-hydroxysteroid … with D64T
B10: 7β-HSDH [R64P]: 7β-HSDH mutant, R in position 64 replaced by P (protein, UniProt A4ECA9 1-263, looked up, variant R64P)
7beta-hydroxysteroid …: B1 7beta-hydroxysteroid … with D64P
B11: 7β-HSDH [R64G]: 7β-HSDH mutant, R in position 64 replaced by G (protein, UniProt A4ECA9 1-263, looked up, variant R64G)
7beta-hydroxysteroid …: B1 7beta-hydroxysteroid … with D64G

Test: Photometric activity determination of 7β-HSDH and mutants (decrease in absorbance at 340 nm, DHCA reduction with NADPH)
Format: biochemical
Conditions: Table 4, variants modified at position 64; 10 mM DHCA, NADPH, KPi pH 8.0
Experimental: The activity of the 7β-HSDH and of the mutants was determined using a photometric assay, where the decrease in absorbance was measured at 340 nm over a period of 30 seconds.
The expression [R64E] in the first column of the table means that the arginine (R) in position 64 of the protein sequence had been replaced by glutamic acid (E) in the mutant in question. The respective amino acid is abbreviated using the international one-letter code. Analogously, [R64D] means that an aspartic acid has been introduced at this position.

Point of comparison: B3, Specific activity 20.9 U/mg. Against it:
- B1 — higher, 32.1 U/mg
- B2 — lower, 15.1 U/mg
- B4 — lower, 14.19 U/mg
- B5 — lower, 13.77 U/mg
- B6 — lower, 15.1 U/mg
- B7 — lower, 20.1 U/mg
- B8 — lower, 10.5 U/mg
- B9 — higher, 27.4 U/mg
- B10 — lower, 19.1 U/mg
- B11 — lower, 12.36 U/mg

Point of comparison: B11, Volumetric activity 223 U/ml. Against it:
- B1 — higher, 641.6 U/ml
- B2 — higher, 296.5 U/ml
- B3 — higher, 334 U/ml
- B4 — higher, 269.7 U/ml
- B5 — higher, 273 U/ml
- B6 — higher, 407.7 U/ml
- B7 — higher, 333.7 U/ml
- B8 — lower, 216 U/ml
- B9 — higher, 450.5 U/ml
- B10 — higher, 402.0 U/ml

Same assay, conditions: qualitative statement

For B1, the “activity compared with the wild-type enzyme” value was “increase in the specific activity”.
In the case of B9, the “activity compared with the wild-type enzyme” value is reported as “increase in the specific activity”.
